# T1: recombinant chimpanzee PSMA extracellular domain (ECD) protein (Pan troglodytes, UniProt Q04609 44-750 (human entry))
# T1 construct: also called Chimp PSMA ECD; PSMG8
# T1 chain: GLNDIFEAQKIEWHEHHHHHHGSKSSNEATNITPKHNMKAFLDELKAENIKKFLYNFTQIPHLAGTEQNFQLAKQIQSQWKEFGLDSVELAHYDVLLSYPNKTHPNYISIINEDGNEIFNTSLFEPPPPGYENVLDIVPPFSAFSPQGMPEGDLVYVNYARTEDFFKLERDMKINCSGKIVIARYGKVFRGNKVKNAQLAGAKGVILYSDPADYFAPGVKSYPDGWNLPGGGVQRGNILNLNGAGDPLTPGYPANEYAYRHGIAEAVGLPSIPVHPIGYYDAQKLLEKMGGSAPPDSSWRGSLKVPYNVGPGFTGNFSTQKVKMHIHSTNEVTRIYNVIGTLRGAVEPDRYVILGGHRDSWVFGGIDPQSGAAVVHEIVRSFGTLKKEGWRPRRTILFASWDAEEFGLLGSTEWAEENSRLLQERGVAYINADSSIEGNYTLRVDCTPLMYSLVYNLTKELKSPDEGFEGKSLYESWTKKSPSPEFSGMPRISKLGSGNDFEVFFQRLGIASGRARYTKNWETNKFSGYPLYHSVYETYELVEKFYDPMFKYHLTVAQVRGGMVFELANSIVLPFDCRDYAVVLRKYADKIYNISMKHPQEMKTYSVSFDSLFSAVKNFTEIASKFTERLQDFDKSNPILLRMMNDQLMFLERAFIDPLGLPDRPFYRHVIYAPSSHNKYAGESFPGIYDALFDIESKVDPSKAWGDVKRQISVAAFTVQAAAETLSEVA
# T2: recombinant cynomolgous monkey PSMA extracellular domain (ECD) protein (Macaca fascicularis, UniProt Q04609 48-750 (human entry), biotin on the Avi tag)
# T2 construct: also called cyno PSMA ECD; PSMG1
# T2 chain: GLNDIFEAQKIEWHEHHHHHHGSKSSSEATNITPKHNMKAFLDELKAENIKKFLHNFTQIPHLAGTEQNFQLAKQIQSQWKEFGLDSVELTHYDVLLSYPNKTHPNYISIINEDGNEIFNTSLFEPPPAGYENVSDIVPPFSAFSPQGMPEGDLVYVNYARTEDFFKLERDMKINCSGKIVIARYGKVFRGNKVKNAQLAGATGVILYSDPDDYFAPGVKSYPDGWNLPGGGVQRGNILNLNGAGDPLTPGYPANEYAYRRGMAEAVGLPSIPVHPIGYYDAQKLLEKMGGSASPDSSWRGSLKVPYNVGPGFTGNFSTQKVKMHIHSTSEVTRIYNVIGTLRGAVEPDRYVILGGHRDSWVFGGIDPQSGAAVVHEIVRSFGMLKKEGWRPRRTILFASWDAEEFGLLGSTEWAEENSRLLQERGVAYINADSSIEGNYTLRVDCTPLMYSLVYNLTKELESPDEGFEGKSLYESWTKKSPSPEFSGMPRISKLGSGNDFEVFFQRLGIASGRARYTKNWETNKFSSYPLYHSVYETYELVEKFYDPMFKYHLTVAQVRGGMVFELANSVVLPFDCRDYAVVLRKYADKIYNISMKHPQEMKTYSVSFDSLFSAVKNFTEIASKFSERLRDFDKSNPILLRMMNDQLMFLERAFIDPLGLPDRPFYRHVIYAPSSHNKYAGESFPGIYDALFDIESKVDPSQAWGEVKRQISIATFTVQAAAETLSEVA
# How the values were obtained:
# [1] = target: T3, human PSMA (prostate specific membrane antigen), full length (human, UniProt Q04609 1-750); experiment: flow cytometry, bispecific antibody titrated on LNCaP cells (human PSMA), anti-human kappa light chain PE
# T3 construct: On LNCaP or C4-2B cells (endogenous) or transduced HEK293F cells; also called FOLH1_HUMAN; hPSMA
# Procedure: (§1) PSMA×CD3 bispecific antibodies were tested for binding to PSMA positive cell lines LNCAP, human PSMA-HEK, Chimpanzee-PSMA-HEK and Cynomolgous monkey PSMA-HEK. To assess the binding capabilities of the PSMA bispecific antibodies, the cell-binding assay was utilized (described previously). Briefly, PSMA expressing tumor cells are bound by bispecific antibodies at known concentrations and the bound antibody is detected by an anti-human kappa light chain PE conjugated detection reagent (Invitrogen). The Mean Fluorescents Intensity (MFI) is the measure of bound bispecific antibody. The MFI is converted to a relative EC₅₀. EC₅₀ is a commonly used dose-response curve, where the half maximal effective concentration or the EC₅₀ point is defined as the inflection point of the curve. EC₅₀ s were determined by measuring cell bound bispecific and known concentrations. […] The dose response curves were then diluted down to that of background or no bispecific binding. The inflection point of this curve reflects the EC₅₀ point. The calculated EC₅₀ is determined by taking the ug/ml amount of bispecific antibody at the EC₅₀ point and converting it to a molarity value based on the MW of the bispecific antibody. Bispecific antibodies were normalized for protein concentration and then incubated with the same number of cells expressing either human or cyno PSMA. […]
# [2] = target: T3, human PSMA (prostate specific membrane …); experiment: flow cytometry, bispecific antibody titrated on human PSMA HEK cells, anti-human kappa light chain PE
# Procedure: as §1
# [3] = target: T3, human PSMA (prostate specific membrane …); experiment: flow cytometry, bispecific antibody titrated on LNCaP cells (human PSMA), anti-human kappa light chain PE; remark: listed apart in the source
# Procedure: PSMA×CD3 bispecific antibodies were tested for binding to PSMA positive cell lines LNCAP, human PSMA-HEK, Chimpanzee-PSMA-HEK and Cynomolgous monkey PSMA-HEK. To assess the binding capabilities of the PSMA bispecific antibodies, the cell-binding assay was utilized (described previously). Briefly, PSMA expressing tumor cells are bound by bispecific antibodies at known concentrations and the bound antibody is detected by an anti-human kappa light chain PE conjugated detection reagent (Invitrogen). The Mean Fluorescents Intensity (MFI) is the measure of bound bispecific antibody. The MFI is converted to a relative EC₅₀. EC₅₀ is a commonly used dose-response curve, where the half maximal effective concentration or the EC₅₀ point is defined as the inflection point of the curve. EC₅₀ s were determined by measuring cell bound bispecific and known concentrations. […] The dose response curves were then diluted down to that of background or no bispecific binding. The inflection point of this curve reflects the EC₅₀ point. The calculated EC₅₀ is determined by taking the ug/ml amount of bispecific antibody at the EC₅₀ point and converting it to a molarity value based on the MW of the bispecific antibody. Bispecific antibodies were normalized for protein concentration and then incubated with the same number of cells expressing either human or cyno PSMA. The MFI at each concentration was collected by flow cytometry and plotted as a function of concentration. Data was transformed via log 10 and then plotted. Nonlinear regression of binding curves was done to determine EC₅₀ s. These relative values were used for ranking PSMA binding to target cells.
# [4] = target: T4, human CD3ε on primary human T cells (human, UniProt P07766 23-207); experiment: FACS, primary human T cells
# T4 construct: whole, on cells; Part of the TCR-CD3 complex on the cells; also called cell-surface CD3ε; CD3E
# [5] = target: T5, recombinant human PSMA extracellular domain (ECD) protein (human, UniProt Q04609 44-750); experiment: SPR ProteOn
# T5 construct: also called human PSMA ECD
# [6] = target: T1, recombinant chimpanzee PSMA …; experiment: SPR ProteOn
# [7] = target: T2, recombinant cynomolgous monkey PSMA …; experiment: SPR ProteOn
# T4 sequence (P07766 23-207): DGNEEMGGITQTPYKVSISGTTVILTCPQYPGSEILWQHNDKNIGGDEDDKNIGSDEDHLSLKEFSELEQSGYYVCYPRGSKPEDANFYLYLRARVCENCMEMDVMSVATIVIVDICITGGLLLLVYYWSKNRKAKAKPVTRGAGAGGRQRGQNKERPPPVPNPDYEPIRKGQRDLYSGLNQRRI
# T3 sequence (Q04609 whole entry): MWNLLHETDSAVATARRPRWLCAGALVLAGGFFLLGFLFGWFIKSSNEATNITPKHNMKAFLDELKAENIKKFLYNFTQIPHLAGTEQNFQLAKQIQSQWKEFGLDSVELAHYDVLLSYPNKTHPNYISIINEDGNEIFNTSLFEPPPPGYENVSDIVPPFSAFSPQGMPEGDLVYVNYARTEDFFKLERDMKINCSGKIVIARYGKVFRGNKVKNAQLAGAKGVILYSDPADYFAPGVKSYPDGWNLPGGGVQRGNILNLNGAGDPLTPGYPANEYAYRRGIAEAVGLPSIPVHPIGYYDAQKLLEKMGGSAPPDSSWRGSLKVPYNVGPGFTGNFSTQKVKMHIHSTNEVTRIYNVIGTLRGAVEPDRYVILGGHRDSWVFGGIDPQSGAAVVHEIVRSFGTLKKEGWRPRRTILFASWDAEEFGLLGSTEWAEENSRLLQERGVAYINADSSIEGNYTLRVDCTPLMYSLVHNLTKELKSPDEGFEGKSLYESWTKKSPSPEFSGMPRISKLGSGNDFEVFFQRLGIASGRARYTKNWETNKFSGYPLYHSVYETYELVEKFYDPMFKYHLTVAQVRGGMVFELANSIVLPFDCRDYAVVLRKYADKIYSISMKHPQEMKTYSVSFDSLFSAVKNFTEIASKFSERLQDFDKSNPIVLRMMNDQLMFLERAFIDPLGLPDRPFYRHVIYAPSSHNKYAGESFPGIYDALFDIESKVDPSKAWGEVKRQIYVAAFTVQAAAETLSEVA
binder,measurement,setting,value
"PS3B7 (M59) (bispecific antibody, human IgG4 S228P, kappa, lambda, F234A L235A, also called PSMB87 x CD3B217) heavy chain, PSMA arm (PSMB87, Fab PSMB58): not shown light chain, PSMA arm (PSMB87, Fab PSMB58): not shown heavy chain, CD3 arm (CD3B217): EVQLLESGGGLVQPGGSLRLSCAASGFTFNTYAMNWVRQAPGKGLEWVARIRSKYNNYATYYADSVKGRFTISRDNSKNTLYLQMNSLRAEDTAVYYCVKHGNFGNSYVSWFAYWGQGTLVTVSSASTKGPSVFPLAPCSRSTSESTAALGCLVKDYFPEPVTVSWNSGALTSGVHTFPAVLQSSGLYSLSSVVTVPSSSLGTKTYTCNVDHKPSNTKVDKRVESKYGPPCPPCPAPEAAGGPSVFLFPPKPKDTLMISRTPEVTCVVVDVSQEDPEVQFNWYVDGVEVHNAKTKPREEQFNSTYRVVSVLTVLHQDWLNGKEYKCKVSNKGLPSSIEKTISKAKGQPREPQVYTLPPSQEEMTKNQVSLTCLVKGFYPSDIAVEWESNGQPENNYKTTPPVLDSDGSFLLYSKLTVDKSRWQEGNVFSCSVMHEALHNHYTQKSLSLSLGK light chain, CD3 arm (CD3B217): QAVVTQEPSLTVSPGGTVTLTCRSSTGAVTTSNYANWVQQKPGQAPRGLIGGTNKRAPGTPARFSGSLLGGKAALTLSGAQPEDEAEYYCALWYSNLWVFGGGTKLTVLGQPKAAPSVTLFPPSSEELQANKATLVCLISDFYPGAVTVAWKADSSPVKAGVETTTPSKQSNNKYAASSYLSLTPEQWKSHRSYSCQVTHEGSTVEKTVAPTECS",EC50 (read off the curve),[1],~1 µg/mL
same,EC50 (read off the curve),[2],~1 µg/mL
same,EC50 (read off the curve),[3],~1 µg/mL
"PS3B12 (M87) (bispecific antibody, human IgG4 S228P, kappa, lambda, F234A L235A, also called PSMB130 x CD3B217) heavy chain, PSMA arm (PSMB130): not shown light chain, PSMA arm (PSMB130): not shown heavy chain, CD3 arm (CD3B217): EVQLLESGGGLVQPGGSLRLSCAASGFTFNTYAMNWVRQAPGKGLEWVARIRSKYNNYATYYADSVKGRFTISRDNSKNTLYLQMNSLRAEDTAVYYCVKHGNFGNSYVSWFAYWGQGTLVTVSSASTKGPSVFPLAPCSRSTSESTAALGCLVKDYFPEPVTVSWNSGALTSGVHTFPAVLQSSGLYSLSSVVTVPSSSLGTKTYTCNVDHKPSNTKVDKRVESKYGPPCPPCPAPEAAGGPSVFLFPPKPKDTLMISRTPEVTCVVVDVSQEDPEVQFNWYVDGVEVHNAKTKPREEQFNSTYRVVSVLTVLHQDWLNGKEYKCKVSNKGLPSSIEKTISKAKGQPREPQVYTLPPSQEEMTKNQVSLTCLVKGFYPSDIAVEWESNGQPENNYKTTPPVLDSDGSFLLYSKLTVDKSRWQEGNVFSCSVMHEALHNHYTQKSLSLSLGK light chain, CD3 arm (CD3B217): QAVVTQEPSLTVSPGGTVTLTCRSSTGAVTTSNYANWVQQKPGQAPRGLIGGTNKRAPGTPARFSGSLLGGKAALTLSGAQPEDEAEYYCALWYSNLWVFGGGTKLTVLGQPKAAPSVTLFPPSSEELQANKATLVCLISDFYPGAVTVAWKADSSPVKAGVETTTPSKQSNNKYAASSYLSLTPEQWKSHRSYSCQVTHEGSTVEKTVAPTECS",EC50 (read off the curve),[1],~1 µg/mL
"CD3B144 (antibody, V domains shown, also called CD3H141/CD3L64) VH: EVQLVESGGGLVQPGGSLRLSCAASGFTFNTYAMNWVRQAPGKGLEWVARIRSKYNNYATYYAASVKGRFTISRDDSKNSLYLQMNSLKTEDTAVYYCARHGNFGNSYVSWFAYWGQGTLVTVSS VL: QSVLTQPPSVSAAPGQKVTISCRSSTGAVTTSNYANWVQQLPGTAPKGLIGGTNKRAPGIPDRFSGSKSGTSATLGITGLQTGDEADYYCALWYSNLWVFGGGTKLTVL",binding result,[4],no binding (tested: 10 µg/ml (normalised))
"CD3B152 (antibody, V domains shown, also called CD3H143/CD3L64) VH: EVQLLESGGGLVQPGGSLRLSCAASGFTFNTYAMNWVRQAPGKGLEWVARIRSKYNNYATYYADSVKGRFTISRDNSKNTLYLQMNSLRAEDTAVYYCVKHGNFGNSYVSWFAYWGQGTLVTVSS VL: QSVLTQPPSVSAAPGQKVTISCRSSTGAVTTSNYANWVQQLPGTAPKGLIGGTNKRAPGIPDRFSGSKSGTSATLGITGLQTGDEADYYCALWYSNLWVFGGGTKLTVL",binding result,[4],no binding (tested: 10 µg/ml (normalised))
"PSMB130 (antibody, human IgG4 S228P, kappa, F234A L235A, V domains shown, IgG4 with S228P, F234A, L235A; also called mAb of Fab PSMB86) VH: QVQLVQSGAEVKKPGSSVKVSCKASGGTFKSYDISWVRQAPGQGLEWMGGIIPIEGTANYAQKFQGRVTITADESTSTAYMELSSLRSEDTAVYYCARDYPAGYGFDYWGQGTLVTVSS VL: not shown",Kd,[5],29.6 nM
same,Kd,[6],31.7 nM
"PSMB123 (antibody, human IgG4 S228P, kappa, F234A L235A, V domains shown, IgG4 with S228P, F234A, L235A; also called mAb of Fab PSMB55) VH: EVQLVQSGAEVKKPGESLKISCKGSGYSFTSYWIGWVRQMPGKGLEWMGIIYPGDSDTRYSPSFQGQVTISADKSISTAYLQWSSLKASDTAMYYCARGLPIWYLDYWGQGTLVTVSS VL: EIVLTQSPATLSLSPGERATLSCRASQSVASDLAWYQQKPGQAPRLLIYFASNRATGIPARFSGSGSGTDFTLTISSLEPEDFAVYYCQQSITWPFTFGQGTKVEIKR",Kd,[7],66.7 nM
same,Kd,[5],9.03 nM
same,Kd,[6],14.3 nM
"PSMB127 (antibody, human IgG4 S228P, kappa, F234A L235A, V domains shown, IgG4 with S228P, F234A, L235A; also called mAb of Fab PSMB83) VH: EVQLLESGGGLVQPGGSLRLSCAASGFTFKSDAMHWVRQAPGKGLEWVSEISGSGGYTNYADSVKGRFTISRDNSKNTLYLQMNSLRAEDTAVYYCARDSYDSSLYVGDYFDYWGQGTLVTVSS VL: EIVLTQSPATLSLSPGERATLSCRASQSVSSYLAWYQQKPGQAPRLLIYDASNRATGIPARFSGSGSGTDFTLTISSLEPEDFAVYYCQQRSNWPLTFGQGTKVEIKR",Kd,[7],6.68 nM
same,Kd,[5],12 nM
same,Kd,[6],12.8 nM

# — US20200024360A1 (Janssen / Centocor, published 2020)
